Source: the nanobody polyreactivity screen of Harvey et al. (2022)

Test: yeast display, Sf9 membrane polyspecificity reagent, FACS + sequencing; frameworks hold sequencing errors
Method in brief: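 A nanobody's polyreactivity label depends on the gate it was sorted from. Yeast display cells were stained with 10% biotinylated, detergent-solubilized Sf9 membrane reagent for 1 hour at 4 °C, enriched on streptavidin microbeads and sorted by FACS. The low and high (top ~1%) gates were set on anti-HA fluorescence for expression and streptavidin fluorescence for reagent binding.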

Sequence	polyreactivity (PSR sort gate)
QVQLVESGGGLVQAGGSLRLTCAASGRTFEQNAMGWNRPAPGKERELVASITSVGSTDYADSVKGRFTISRDNAKNTVYLQMNSLKPEDTAVYYCAKTLGSQNYDFDYWGQGTQVTVSS	low polyreactivity
QVQLVESGGGLVQAGGSLRLTCAASGRTFGINAMGWYRQAPGKERELVAAIDSIDGTTYYADSVKGHFTISRDNAKNTVYLPMNRLKPAATAVYYCAAEFISSYDYWGQGTQVTVSS	high polyreactivity
QVQLVESGGGLVQAGGSLRLTCAASGRTFRNYAMGWYRQAPGKEREMVAAISRSGGITYYADSVKGRFTISRDNAKNTVYLQMNSLKPEDTAVYYCAARHSYQGPGTYPMYYWGQGTQVTVTS	high polyreactivity
QVQLVESGGGLVQAGGSLRLTCAASGRTFSVNAMGWYRQAPGKEREFVAAIRTSGGSTSYADSVKVRFTISRDNAKYTVFLQMSSLKPEDTAVYYCAADYGGTSYVRGTVGRKYDYWGQGTQVTVSS	high polyreactivity
QVQLVESGGGLVQAGGSLRLTCAASGRTFSYNAMGWYRQAPGKERELVAAISYDGGRTYYADSVKGRFTISRDNAKNSVYLQMNSLKPEDTAVYFCAAYPYRCPHPWTIGDYWGQGTQVTVSS	low polyreactivity
QVQLVESGGGLVQAGGSLRLTCAASGRTFTTYAMGWYRQAPGKERELFAAISGSGGSTYYADSVKGRFTISRDNAKNTVYLQMNSLKPEGTAVYYCATAYYYHGGYYYPYDDYWGQGTQVTVSS	low polyreactivity
QVQLVESGGGLVQAGGSLRLTCAASGRTLRYNAMGWYRPAPVKERELVAAITSTGSTNYADSVKGRFTISRDNAKLTVYLHMNSLTAEDTAVYYCAKTSRYYWYGYDYWGQGTQVTVSS	high polyreactivity
QVQLVESGGGLVQAGGSLRLTCAASGSIFGNNAMGWYRQATGKERELVAVITDGGNTYYADSVKGRFTISRDNAKNTVYLQMNSLKPEDTAVYYCNAEWWGDSVYWGQGTQVTVSS	low polyreactivity
QVQLVESGGGLVQAGGSLRLTCAASGSIFGYAMGWYRQEPGKERELVAAISFSGVSTYYADSVKGRFTISRDNAKNTVYLLMNSLKPEDTAVYDCNAYSDGDEDYWGQGTQVTVSS	low polyreactivity
QVQLVESGGGLVQAGGSLRLTCAASGSIFSFYAMGWYRQAPGKERELVAAITQSDSSTYYADSVKGRFTISRDNAKNTVYLQMNSLKPVDTAVYYCAKDYYAYSDYDYWGQGTQVTVSS	low polyreactivity
QVQLVESGGGLVQAGGSLRLTCAASGSIFSHYAMGWYRQATGKERELVAAITYGGGSTYYADSVKGRFTISRDIAMNTVYLQMNSLKPDDTAVYYCAKEFKYWGYPYDYWGQGTQVTVSS	low polyreactivity
QVQLVESGGGLVQAGGSLRLTCAASGSIFSLNVMGRYRQAPGKERELVATIRGRGTSTYYADSVKGRFTISRYNAKINVYLHMNSLKPEDTAVYYWAARGHGAYGYWGQGTQVTVSS	low polyreactivity
QVQLVESGGGLVQAGGSLRLTCAASGSIFSYNVMGWYRQAPGKERELVAVITGSGGSTYYADSVKGRFTISRDNAKNTVYLQMYSLKPEDTAVYYCAATYSGWQWYETYYYWGQGTQVTVSS	low polyreactivity
QVQLVESGGGLVQAGGSLRLTCAASGSIFVNNAMGWYRQAPGKEMELVAAIRRSGGNTYYADSVKGRFTISRDNAKNTVYLQMNSLIPEDTAVYYCNVVRRADSIRAKSRDYWGQGTQVTVSS	high polyreactivity
QVQLVESGGGLVQAGGSLRLTCAASGSIFVQYAMGWYRQAPGKERELVATISSSGGSTYYADSVKGRCTISRDNAKNTVYLQMNSLKPEDTAVYYFAADWTLDRSYGYYADDYWGQGTQVTVSS	low polyreactivity
QVQLVESGGGLVQAGGSLRLTCAASGSIFYWYAMGWYRQAPGKERELVAAISSSGSTNYADSVKGRFTISRDNAKNTVYLQMNSLKPEDTAVYYCGAYRTGYNGWGYGYWGQGTQVTVSS	high polyreactivity
QVQLVESGGGLVQAGGSLRLTCAASGSIIALYAMGWYRQAPGKERELVATISSCVSTYYADSVKGRFTISRDNAKNTVYLQLNSLKPEDTAVYYCAADKTVRSSNYDYWGQCTQVTVSS	low polyreactivity
QVQLVESGGGLVQAGGSLRLTCAASGSILIYNAMGWYRQAPGKQRELVADITNGGSTNYADSVKGRFTISRDNAKNTVYLQMHSLKPDDTAVYYCAKDAYYWWGPDYDYWGQGTQVTVSS	low polyreactivity
QVQLVESGGGLVQAGGSLRLTCAASGSISGLYTMGWYRQAPGKERELVAAIRWTTGTTYYADSVKGRFTISRDNAKNTVYLQMNSLKPEDTAVYYCNVVTWYYVFRPWEYDYWGQGTQVTVSS	low polyreactivity
QVQLVESGGGLVQAGGSLRLTCAASGSTFAGNAMGWYRQATGKERELVAAIDSSTGSTYYADSVKGRFTISRDNAKNTVYLQMNSLKPEDSAVYYCNKTSFLVKLDYWGQGTQVTVSS	low polyreactivity
QVQLVESGGGLVQAGGSLRLTCAASGSTFFPNDMGWYRQAPGKERELVDAISWRGGNTYADSVKGRFTISRDNAKNTVLLQMNSLKPEDTAVYYCAADVEWTSRGSYYRYYYWGQGTQVTVSS	low polyreactivity
QVQLVESGGGLVQAGGSLRLTCAASGSTFLFYARGWYRQAPGKERELVAAIRGRGGSTYYADSVKGRFTISRDNAKNTVYLQMNSLKPEDTAVYYCAALSRFPVNRYSDLDLYYWGEGTQVTVSS	high polyreactivity

Sequence	polyreactivity (PSR sort gate)
QVQLVESGGGLVQAGGSLRLTCAASGSTFRYYVMGWYRQAPGKERELVAGISYRGGTTYYADSVKGRFTISRDNAKNTVYLQMNSLKPEDTAVYYCNAETAAAQASYDRLYVLLDYWGQGTQVTVSS	low polyreactivity
QVQLVESGGGLVQAGGSLRLTCAASGSTFYIYAMGWYRQAPGKERELVAAISQGGGSTSYADSVKGRFTISRDYAKNTVYLQMNSLKPEDTAVYYCAARRASRVRGKEGGYWGQGSQVTVSS	high polyreactivity
QVQLVESGGGLVQAGGSLRLTCAASGSTFYIYAMGWYRQAPGKERELVARISGSGGSTYYADSVKGRFTISRDNAKNTVYLQMNSLKPEDTAVYYCAADDIYKYYQYYAFPYYRYDYWGQGTQVTVSS	low polyreactivity
QVQLVESGGGLVQAGGSLRLTCAASGSTFYLNAMGWYRQATGKERELVAAITVSGGSTYYADSVKGRFTISRDNAKNTVYLQMNSLKPVDTAVYYCARELLSPTYQRWYYYWGQGTQVTVSS	low polyreactivity
QVQLVESGGGLVQAGGSLRLTCAASGSTFYTYAMGWYRQAPGNERELVAALSYGGGITYYADSVKGRFTISRDNEKNTVYIQMNSLKPEDTAVYYCAAVNGWQRYEFWGQGTQVTVSS	high polyreactivity
QVQLVESGGGLVQAGGSLRLTCAASGSTIVRNAMGWYRQAPGKEREFVAAIDWRGGSTSYADSVKGRFTISRDNAKNTVYLQMHSLKPADTAVYYCAAARRARELRSGQGSTYGNEYWGLGTQVTVSS	high polyreactivity
QVQLVESGGGLVQAGGSLRLTCAASGSTSYSNAMGWYRQAPGKERELVAAINRRGDSTYYADSVKGRFTISRDNAKNTVYLQMNSLKPEDTAVYYCNKVVRVYLGRFQYYSWGQGTQVTVSS	high polyreactivity
QVQLVESGGGLVQAGGSLRLTCAASGYIFGIYAMGWYRQAPGKERELVAAITTSSGSTYADSVKGRFTISRDNAKNTVYLQMNSLKPEDTAVYYCAADGYLYSYPGHRRASYDYWGQGTQVTVSS	low polyreactivity
QVQLVESGGGLVQAGGSLRLTCAASGYTFAGNAMGWYRQAPGKERELVAALSRSGGRTYYADSVKGRFTISRDNAKTTVYLQMNSLKPEDTAVYYCAASYRYTEYVSTWGFGYWGQGTQVTVSS	high polyreactivity
QVQLVESGGGLVQAGGSLRLTCAASGYTFRRYAMGWYRQAPGKERELVAAITRDDSTNYADSVKGRFTISRDNGKNTVYLQMNSLKPEDTAVYYCAAAVGLRRYSPLHLLYYYWGQGTQVTVSS	high polyreactivity
QVQLVESGGGLVQAGGSLRLTCAASRSIFYPNAMGWYRQAPGKETELVAAISSSGGTNYADSVKGRFTISRDNAQNTVYLQMNSLKPEDTAVYYCNARDKVRYRYSLMDYWGQGTQVTVSS	low polyreactivity
QVQLVESGGGLVQAGGSLRLTCAASVSTFSRYAMGWYRQAPGKERELVAAISWRGGRTYYADSVKGRFTISRDNAKNTVYLQMNSLKPEDTAVYYCNAVSSFTSPRYDYWGQGTQVTVSS	high polyreactivity
QVQLVESGGGLVQAGGSLRLTCAGSGRIFPFYAMGWYRHAPGKERELVAAISWNGGSTFYADSVKGRFTISRDNAKNTVYLQMNSLKPEDTAVYYCNADFRPAYTYDYWGQGTQVTVSS	low polyreactivity
QVQLVESGGGLVQAGGSLRLTCAPSGSTLLVYAMGWNRQAPGKERELVAAISGSGGRTSYADSVKGRFTISRDNAKNTVYLQMNSLKPEDTAVYYCAARRAGTYDYWGEGTQVTVSS	high polyreactivity
QVQLVESGGGLVQAGGSLRLTCDASGSSFIFNAMGWSRQAHGIEMELVAGITRRVDSTFYADSVKGRFTISRDNAKNTVYLQMTSLKPEDTGVFFFAARQYSGVKYNYWGQGTEVTVSS	high polyreactivity
QVQLVESGGGLVQAGGSLRLTCDASGSTFVNYAMGWYRQAPGKERELVAAITDSGGSTYYADSVKGRFTISRDNAKNTVYLQMNCLKPEDTAVYYCATEGYYYYTSYDYWGQGTQVTVSS	low polyreactivity
QVQLVESGGGLVQAGGSLRLTCSASGFIFRYYAKGWSRQAPGKERELVAAISTSGGSTYYADSVKGRFTISRDIAKNTVYLQMNSLKPEDTAVYYCAASTNTDRDFWGQGTQVTVSS	high polyreactivity
QVQLVESGGGLVQAGGSLRLTWAASGSIFTYYTRGWYRQAPGKERELVATIRYTGGNTYYADSVKGRFTISRDNAKNTVYLQMNILKPEDTAVYYCATGYSYRNVPTFRWLYYWGQGTQVTVSS	low polyreactivity
QVQLVESGGGLVQAGGSLRVSCAASGFIFVRNTMVWYRQAPGKERELVAGIRYSGGSTYYADSVKGRFTISRDNAKNTVFLQMNSQKTEDTAVYYCAARSHRRLMYYWGQGTQVNVSS	high polyreactivity
QVQLVESGGGLVQAGGSLRVSCAASGFTFPWYAMGWYRPAPGKERELVASISYRGDSTYYADSVKGRFTISRDNAKITVYLQMNSLKPEDTSVYYCNKRLDSYYLPGFDYWGQGTQVTVSS	low polyreactivity
QVQLVESGGGLVQAGGSLRVSCAASGFTLQRNTMGWYRQAPGKEREFVAAISVRGGSTYYADSVKGRFTISRDNAQNTVYLQMNSLKPEDTAVYYCAAVGRPTQYSYPYGYWGQGTQVTVSS	high polyreactivity
